According to US20180194839A1 (Novartis, published 2018):

T1: recombinant rat IL-17A (SEQ ID NO: 85) (rat, UniProt Q61453 18-150)
T1 sequence: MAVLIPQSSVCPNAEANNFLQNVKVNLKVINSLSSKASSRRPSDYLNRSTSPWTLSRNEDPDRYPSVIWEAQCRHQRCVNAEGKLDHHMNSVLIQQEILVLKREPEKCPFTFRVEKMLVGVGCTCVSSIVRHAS

T2: recombinant mouse IL-17A (SEQ ID NO: 83) (mouse, UniProt Q62386 26-158)
T2 sequence: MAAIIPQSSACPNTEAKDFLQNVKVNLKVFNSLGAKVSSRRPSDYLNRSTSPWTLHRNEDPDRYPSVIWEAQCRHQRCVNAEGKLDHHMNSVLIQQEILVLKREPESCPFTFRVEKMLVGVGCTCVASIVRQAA

T3: recombinant mouse IL-17A/F (R&D Systems Cat#5390-IL) (mouse, UniProt Q62386 26-158; Q7TNI7 29-161, limits assumed)
T3 sequence (looked up) 1: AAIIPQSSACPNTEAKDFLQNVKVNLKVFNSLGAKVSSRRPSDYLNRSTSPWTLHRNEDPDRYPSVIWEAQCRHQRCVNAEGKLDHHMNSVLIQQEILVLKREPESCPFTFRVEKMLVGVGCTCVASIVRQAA
T3 sequence (looked up) 2: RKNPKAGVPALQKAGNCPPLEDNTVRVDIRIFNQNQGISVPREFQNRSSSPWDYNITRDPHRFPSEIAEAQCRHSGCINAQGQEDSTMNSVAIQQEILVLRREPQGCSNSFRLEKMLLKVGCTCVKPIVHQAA

T4: recombinant mouse IL-17F (SEQ ID NO: 84) (mouse, UniProt Q7TNI7 29-161)
T4 sequence: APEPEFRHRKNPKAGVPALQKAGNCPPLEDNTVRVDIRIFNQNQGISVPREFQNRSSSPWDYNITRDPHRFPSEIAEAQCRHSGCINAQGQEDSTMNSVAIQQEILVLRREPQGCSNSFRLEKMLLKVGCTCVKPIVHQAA

T5: recombinant human IL-17C (R&D Systems Cat#1234IL/CF) (human, UniProt Q9P0M4 19-197)
T5 construct: also called huIL-17C; hu IL-17C
T5 sequence (looked up): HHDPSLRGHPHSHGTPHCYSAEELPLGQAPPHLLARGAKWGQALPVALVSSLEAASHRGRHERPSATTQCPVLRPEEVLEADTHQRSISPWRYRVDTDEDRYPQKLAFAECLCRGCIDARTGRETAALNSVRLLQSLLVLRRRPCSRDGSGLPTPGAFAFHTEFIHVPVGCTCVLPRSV

T6: recombinant human IL-17E (R&D Systems Cat#1258-IL/CF) (human, UniProt Q9H293 33-177)
T6 construct: also called huIL-17E; hu IL-17E
T6 sequence (looked up): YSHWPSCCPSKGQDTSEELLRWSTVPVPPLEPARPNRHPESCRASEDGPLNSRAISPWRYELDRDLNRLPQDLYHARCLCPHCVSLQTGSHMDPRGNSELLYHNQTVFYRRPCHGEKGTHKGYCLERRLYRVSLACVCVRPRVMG

T7: recombinant human IL-17A/F heterodimer (human, UniProt Q16552 24-155; Q96PD4 31-163, limits assumed)
T7 construct: heterodimer of an IL-17A subunit and an IL-17F subunit; also called huIL-17A/F; rhuIL-17A/F
T7 sequence (looked up) 1: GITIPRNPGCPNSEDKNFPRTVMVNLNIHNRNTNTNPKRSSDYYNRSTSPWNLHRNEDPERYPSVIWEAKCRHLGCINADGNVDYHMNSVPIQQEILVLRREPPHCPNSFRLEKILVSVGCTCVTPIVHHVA
T7 sequence (looked up) 2: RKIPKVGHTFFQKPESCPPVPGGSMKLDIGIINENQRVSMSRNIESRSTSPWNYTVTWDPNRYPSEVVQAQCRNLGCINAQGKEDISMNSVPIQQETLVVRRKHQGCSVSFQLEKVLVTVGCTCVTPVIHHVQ

T8: recombinant human IL-17D (R&D Systems Cat#1504IL/CF) (human, UniProt Q8TAD2 18-202, limits assumed)
T8 construct: also called huIL-17D; hu IL-17D
T8 sequence (looked up): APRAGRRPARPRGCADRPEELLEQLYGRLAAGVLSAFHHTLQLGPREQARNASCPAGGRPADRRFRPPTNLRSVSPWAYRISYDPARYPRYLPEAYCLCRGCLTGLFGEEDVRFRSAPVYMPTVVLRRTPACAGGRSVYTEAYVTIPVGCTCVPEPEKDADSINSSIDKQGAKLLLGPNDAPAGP

T9: recombinant human IL-17B (R&D Systems) (human, UniProt Q9UHF5 21-180)
T9 construct: also called huIL-17B; hu IL-17B
T9 sequence (looked up): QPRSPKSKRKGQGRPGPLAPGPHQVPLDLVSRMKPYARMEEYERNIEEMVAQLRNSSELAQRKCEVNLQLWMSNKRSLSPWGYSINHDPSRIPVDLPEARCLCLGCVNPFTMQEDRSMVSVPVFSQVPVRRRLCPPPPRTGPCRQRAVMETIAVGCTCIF

T10: recombinant human IL-17A (SEQ ID NO: 76) (human, UniProt Q16552 24-155, limits assumed)
T10 construct: homodimer; also called huIL-17A; rhuIL-17A
T10 sequence: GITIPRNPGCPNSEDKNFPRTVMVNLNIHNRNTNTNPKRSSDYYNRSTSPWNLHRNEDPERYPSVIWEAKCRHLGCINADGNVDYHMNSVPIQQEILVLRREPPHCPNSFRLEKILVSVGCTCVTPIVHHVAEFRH

B1: XAB4 (antibody, human IgG1, kappa, V domains shown)
VH: EVQLVESGGDLVQPGGSLRLSCAASGFTFSSYWMSWVRQAPGKGLEWVANIKQDGSEKYYVDSVKGRFTISRDNAKNSLYLQMNSLRAEDTAVYYCARDRGSLYYWGQGTLVTVSS
VL: AIQLTQSPSSLSASVGDRVTITCRPSQGINWELAWYQQKPGKAPKLLIYDASSLEQGVPSRFSGSGSGTDFTLTISSLQPEDFATYYCQQFNSYPLTFGGGTKVEIKR
notes: also called MB435 N56Q
B2: XAB1 (antibody, human IgG1, kappa, V domains shown)
VH: EVQLVESGGDLVQPGGSLRLSCAASGFTFSSYWMSWVRQAPGKGLEWVANIKQDGSEKYYVDSVKGRFTISRDNAKNSLYLQMNSLRAEDTAVYYCARDRGSLYYWGQGTLVTVSS
VL: AIQLTQSPSSLSASVGDRVTITCRPSQGIISALAWYQQKPGKAPKLLIYDASSLENGVPSRFSGSGSGTDFTLTISSLQPEDFATYYCQQFNSYPLTFGGGTKVEIKR
notes: human IgG1/kappa monoclonal antibody; also called parental XAB1; XAB1 IgG

Columns and labels:
[1] = target: T1, recombinant rat IL-17A (SEQ ID NO: 85); test: cell-based or functional assay
[2] = target: T2, recombinant mouse IL-17A (SEQ ID NO: 83); test: cell-based or functional assay
[3] = target: T3, recombinant mouse IL-17A/F (R&D Systems …); test: cell-based or functional assay
[4] = target: T4, recombinant mouse IL-17F (SEQ ID NO: 84); test: cell-based or functional assay
[5] = target: T5, recombinant human IL-17C (R&D Systems …); test: ELISA, coated antigen, Ab 1 µg/ml
Procedure: (§1) A titration of the antibodies of interest on different antigens was carried out.
(§2) Plates were then washed 4 times with PBS/0.05% Tween 20 (Sigma Cat# P7949)/0.02% NaN₃.
(§3) Plates were then washed 4 times with PBS/0.05% Tween 20/0.02% NaN₃. Then, an alkaline phosphatase-conjugated goat anti-human IgG antibody (Sigma Cat# A9544) was added to the wells that received test antibody at a dilution of 1/20000 (100 μl/well) for 2 h 30 min at RT. To the wells, that received mouse mAb, an alkaline phosphatase-conjugated goat anti-mouse IgG antibody (Sigma Cat# A7434) was added at a dilution of 1/10000 (100 μl/well) for 2 h 30 min at RT. An alkaline phosphatase conjugated mouse anti goat IgG antibody (Sigma Cat# A8062) was added to the goat antibodies at a dilution of 1/50000 (100 μl/well) for 2 h 30 min at RT. Plates were then washed 4 times and 100 μl of the substrate (p-nitrophenyl phosphate tablets; Sigma; 5 mg Cat#N9389; 20 mg Cat#. N2765) dissolved in diethanolamine buffer pH 9.8, to give a final concentration of 1 mg/ml, were added to each well.

[6] = target: T6, recombinant human IL-17E (R&D Systems …); test: ELISA, coated antigen, Ab 1 µg/ml
Procedure: as §1, §2, §3

[7] = target: T3, recombinant mouse IL-17A/F (R&D Systems …); test: ELISA, coated antigen, Ab 1 µg/ml
Procedure: as §1, §2, §3

[8] = target: T7, recombinant human IL-17A/F heterodimer; test: ELISA, coated antigen, Ab 1 µg/ml
Procedure: as §1, §2, §3

[9] = target: T8, recombinant human IL-17D (R&D Systems …); test: ELISA, coated antigen, Ab 1 µg/ml
Procedure: as §1, §2, §3

[10] = target: T4, recombinant mouse IL-17F (SEQ ID NO: 84); test: ELISA, coated antigen, Ab 1 µg/ml
Procedure: as §1, §2, §3

[11] = target: T9, recombinant human IL-17B (R&D Systems); test: ELISA, coated antigen, Ab 1 µg/ml
Procedure: as §1, §2, §3

[12] = target: T10, recombinant human IL-17A (SEQ ID NO: 76); test: ELISA, coated antigen, Ab 1 µg/ml
Procedure: as §1, §2, §3

Row | Binder | IC50, mouse KC secretion by CMT-93 cells; stimulus rIL-17A (1 nM) [1] [nM] | IC50, mouse KC secretion by CMT-93 cells; stimulus mIL-17A (1 nM) [2] [nM] | IC50, mouse KC secretion by CMT-93 cells; stimulus mIL-17A/F (3 nM) [3] [nM] | IC50, mouse KC secretion by CMT-93 cells; stimulus mIL-17F (30 nM) [4] [nM] | O.D. [5] [O.D.] | O.D. [6] [O.D.] | O.D. [7] [O.D.] | O.D. [8] [O.D.] | O.D. [9] [O.D.] | O.D. [10] [O.D.] | O.D. [11] [O.D.] | O.D. [12] [O.D.]
1 | B1 | 6.7 | 13.8 | 10.3 | > 10000 | 0.036 | 0.035 | 2.26 | 2.14 | 0.034 | 0.098 | 0.034 | 2.47
2 | B2 | 467 | 539 | > 1000 | > 10000 | 0.032 | 0.033 | 1.76 | 1.22 | 0.031 | 0.044 | 0.049 | 1.3
